The series “SEC” concerns the molecule itself. Put plainly: SEC. A general note: Size exclusion chromatography separates by hydrodynamic size, large species first.
The series “cryo-EM structure” deals with the molecule itself. Put plainly: cryo-EM structure.

Results on three proteins are retold here after paper PMC8313811 (Current Research in Structural Biology, 2021).

B1: M. tuberculosis EspB (residues 2-358), mature form (domain or fragment)
chain: TQSQTVTVDQQEILNRANEVEAPMADPPTDVPITPCELTAAKNAAQQLVLSADNMREYLAAGAKERQRLATSLRNAAKAYGEVDEEAATALDNDGEGTVQAESAGAVGGDSSAELTDTPRVATAGEPNFMDLKEAARKLETGDQGASLAHFADGWNTFNLTLQGDVKRFRGFDNWEGDAATACEASLDQQRQWILHMAKLSAAMAKQAQYVAQLHVWARREHPTYEDIVGLERLYAENPSARDQILPVYAEYQQRSEKVLTEYNNKAALEPVNPPKPPPAIKIDPPPPPQEQGLIPGFLMPPSDGSGVTPGTGMPAAPMVPPTGSPGGGLPADTAAQLTSAGREAAALSGDVAVKAA
For B1, the binding result in the series “SEC” is on record as “binds”.

B2: M. marinum EspB2-286 (domain or fragment)
chain: SQPQTVTVDQQEILNRADEVEAPMATPPTDVPQAPSGLTAANNAAEQLAVSADNVRLYLQAGERERQRLATSLRNAAAAYGEVEDESATALDNDGNGEVDAQSAGGAGAGQTESLEETPKVAAAGESDFTDLKTAATKLESGDQGTSMVNFADGWNNFNLSLQRDIKRFRIFENWEGDAATACEASMDQQKEWILHMAKLSASLAKQANFMAQLQLWARRGHPTLADIVELERLAKDPDYQEQAIKLYAEYQETSEKVLSEYNTKADLEPVNPPKPPAAIKIDPP
As usually defined, the stoichiometry N is the number of molecules, sites or subunits per partner or assembly. For B2, in the series “cryo-EM structure”, the “stoichiometry N” value came to 7.

B3: M. tuberculosis EspB2-287 (domain or fragment)
chain: TQSQTVTVDQQEILNRANEVEAPMADPPTDVPITPCELTAAKNAAQQLVLSADNMREYLAAGAKERQRLATSLRNAAKAYGEVDEEAATALDNDGEGTVQAESAGAVGGDSSAELTDTPRVATAGEPNFMDLKEAARKLETGDQGASLAHFADGWNTFNLTLQGDVKRFRGFDNWEGDAATACEASLDQQRQWILHMAKLSAAMAKQAQYVAQLHVWARREHPTYEDIVGLERLYAENPSARDQILPVYAEYQQRSEKVLTEYNNKAALEPVNPPKPPPAIKIDPP
For the protein B3, the “stoichiometry N” value in “cryo-EM structure” is 7.
